Patent US20260274980A1 (BIOARCTIC, published 2026)

Legend:
[1] = molecular target: T1, human transferrin receptor 1 (hTfR1) on cell surfaces (human, UniProt P02786 1-760); experiment: flow cytometry on Ramos cells (hTfR1 on the surface), Fc receptors blocked, overnight at 4 °C, detection with anti-human IgG-Alexa Fluor 488
T1 construct: Endogenous receptor on hCMEC/D3, THP-1, K562 and Ramos cells; also called CD71; endogenous hTfR1
Experimental: (§1) Binding to hTfR1 on cells was measured on the immortalized human B lymphocyte cell line Ramos (Sigma, cat: 85030802). This cell line is known for expressing high levels of hTfR1 on the cell surface. Fcγ receptors were blocked using Fc receptor blocker (Innovex biosciences, #NB309-4X-40) for 30 min at 4° C., after which the cells were washed in PBS. The cells were seeded in a 96 well V bottom plate (#249570, Thermo Scientific Nunc), and serially diluted Gen 2A constructs were added and the plate was incubated at 4° C. overnight. The cells were washed with PBS with 1% BSA and then fixed with freshly prepared 4% formaldehyde (Thermo Scientific Pierce, #28906) diluted in PBS for 15 min at room temperature. The cells were washed with PBS containing 1% BSA, and then stained. […] Staining was carried out for 30 min at 4° C. After incubation with the detection reagent, cells were washed with PBS containing 1% BSA. The cells were finally resuspended in 200 μl PBS with 1% BSA and acquired using a BD FACSLyric flow cytometer system (BD Biosciences). Samples were analyzed using flowJo software (BD Biosciences).

[2] = molecular target: T1, human transferrin receptor 1 (hTfR1) on …; experiment: flow cytometry, Ramos cells
Experimental: as §1

T1 sequence (P02786 whole entry): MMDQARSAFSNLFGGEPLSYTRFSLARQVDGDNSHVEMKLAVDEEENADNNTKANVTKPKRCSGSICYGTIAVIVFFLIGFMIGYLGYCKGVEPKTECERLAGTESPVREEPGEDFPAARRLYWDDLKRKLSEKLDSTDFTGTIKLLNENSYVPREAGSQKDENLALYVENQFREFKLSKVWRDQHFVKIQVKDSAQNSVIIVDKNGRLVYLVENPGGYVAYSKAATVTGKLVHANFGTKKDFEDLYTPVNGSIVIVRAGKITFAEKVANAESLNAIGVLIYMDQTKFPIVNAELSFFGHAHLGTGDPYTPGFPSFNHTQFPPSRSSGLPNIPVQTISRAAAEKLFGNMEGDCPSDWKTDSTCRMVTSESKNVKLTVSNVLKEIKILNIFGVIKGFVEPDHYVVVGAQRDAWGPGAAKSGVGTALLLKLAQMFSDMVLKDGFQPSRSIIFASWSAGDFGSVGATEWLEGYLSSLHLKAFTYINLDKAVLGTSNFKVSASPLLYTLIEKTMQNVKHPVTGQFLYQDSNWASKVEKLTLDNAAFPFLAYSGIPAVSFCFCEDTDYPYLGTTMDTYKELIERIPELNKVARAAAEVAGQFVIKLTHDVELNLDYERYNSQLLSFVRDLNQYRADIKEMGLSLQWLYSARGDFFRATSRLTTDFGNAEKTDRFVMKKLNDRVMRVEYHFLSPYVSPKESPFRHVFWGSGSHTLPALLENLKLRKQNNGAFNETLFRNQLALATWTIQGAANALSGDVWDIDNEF

Row | Binder | binding result [1] | binding result [2]
1 | 2A-3 #11 (bispecific antibody, human IgG1, kappa, also called Gen 2A construct #11; VL first) heavy: not shown DIVMTQAPLSLPVSLGDQASISCRSSQSIVHSNGNTYLEWYLQKPGQSPKLLIYKVSNRFSGVPDRFSGSGSGTDFTLKISRVEAEDLGIYYCFQGSHVPPTFGGGTKLEIKRTVAAPSVFIFPPSDEQLKSGTASVVCLLNNFYPREAKVQWKVDNALQSGNSQESVTEQDSKDSTYSLSSTLTLSKADYEKHKVYACEVTHQGLSSPVTKSFNRGECGGGGSDIQMTQSPSSVSASVGDRVTITCKSSQSLLYSTNQKNYLAWYQQKPGKAPKLLIYWASTRESGVPSRFSGSGSGTDFTLTISSLQPEDFATYYCQQYFIYPRTFGQGTKVEIKGGGGSGGGGSGGGGSEVQLVQSGAEVKKPGSSVKVSCKASGYIFTDYNMDWVRQAPGQGLEWIGDINPDADTTSYNEKFKGRATLTVDKSTSTAYMELSSLRSEDTAVYYCARGGYSGSSYYHPMDYWGQGTLVTVSSGGGGSGGGGSGGGGSGGGGSGGGGSDIVMTQAPLSLPVSLGDQASISCRSSQSIVHSNGNTYLEWYLQKPGQSPKLLIYKVSNRFSGVPDRFSGSGSGTDFTLKISRVEAEDLGIYYCFQGSHVPPTFGGGTKLEIKRTVAAPSVFIFPPSDEQLKSGTASVVCLLNNFYPREAKVQWKVDNALQSGNSQESVTEQDSKDSTYSLSSTLTLSKADYEKHKVYACEVTHQGLSSPVTKSFNRGEC | binds | –
2 | 2A-3 #12 (bispecific antibody, human IgG1, kappa, also called Gen 2A construct #12; VL first) heavy: not shown DIVMTQAPLSLPVSLGDQASISCRSSQSIVHSNGNTYLEWYLQKPGQSPKLLIYKVSNRFSGVPDRFSGSGSGTDFTLKISRVEAEDLGIYYCFQGSHVPPTFGGGTKLEIKRTVAAPSVFIFPPSDEQLKSGTASVVCLLNNFYPREAKVQWKVDNALQSGNSQESVTEQDSKDSTYSLSSTLTLSKADYEKHKVYACEVTHQGLSSPVTKSFNRGECGGGGSGGGGSDIQMTQSPSSVSASVGDRVTITCKSSQSLLYSTNQKNYLAWYQQKPGKAPKLLIYWASTRESGVPSRFSGSGSGTDFTLTISSLQPEDFATYYCQQYFIYPRTFGQGTKVEIKGGGGSGGGGSGGGGSEVQLVQSGAEVKKPGSSVKVSCKASGYIFTDYNMDWVRQAPGQGLEWIGDINPDADTTSYNEKFKGRATLTVDKSTSTAYMELSSLRSEDTAVYYCARGGYSGSSYYHPMDYWGQGTLVTVSSGGGGSGGGGSGGGGSGGGGSGGGGSDIVMTQAPLSLPVSLGDQASISCRSSQSIVHSNGNTYLEWYLQKPGQSPKLLIYKVSNRFSGVPDRFSGSGSGTDFTLKISRVEAEDLGIYYCFQGSHVPPTFGGGTKLEIKRTVAAPSVFIFPPSDEQLKSGTASVVCLLNNFYPREAKVQWKVDNALQSGNSQESVTEQDSKDSTYSLSSTLTLSKADYEKHKVYACEVTHQGLSSPVTKSFNRGEC | binds | –
3 | 2A-3 #13 (bispecific antibody, human IgG1, kappa, also called Gen 2A construct #13; VL first) heavy: not shown DIVMTQAPLSLPVSLGDQASISCRSSQSIVHSNGNTYLEWYLQKPGQSPKLLIYKVSNRFSGVPDRFSGSGSGTDFTLKISRVEAEDLGIYYCFQGSHVPPTFGGGTKLEIKRTVAAPSVFIFPPSDEQLKSGTASVVCLLNNFYPREAKVQWKVDNALQSGNSQESVTEQDSKDSTYSLSSTLTLSKADYEKHKVYACEVTHQGLSSPVTKSFNRGECGGGGSGGGGSGGGGSDIQMTQSPSSVSASVGDRVTITCKSSQSLLYSTNQKNYLAWYQQKPGKAPKLLIYWASTRESGVPSRFSGSGSGTDFTLTISSLQPEDFATYYCQQYFIYPRTFGQGTKVEIKGGGGSGGGGSGGGGSEVQLVQSGAEVKKPGSSVKVSCKASGYIFTDYNMDWVRQAPGQGLEWIGDINPDADTTSYNEKFKGRATLTVDKSTSTAYMELSSLRSEDTAVYYCARGGYSGSSYYHPMDYWGQGTLVTVSSGGGGSGGGGSGGGGSGGGGSGGGGSDIVMTQAPLSLPVSLGDQASISCRSSQSIVHSNGNTYLEWYLQKPGQSPKLLIYKVSNRFSGVPDRFSGSGSGTDFTLKISRVEAEDLGIYYCFQGSHVPPTFGGGTKLEIKRTVAAPSVFIFPPSDEQLKSGTASVVCLLNNFYPREAKVQWKVDNALQSGNSQESVTEQDSKDSTYSLSSTLTLSKADYEKHKVYACEVTHQGLSSPVTKSFNRGEC | binds | –
4 | 2A-3 #14 (bispecific antibody, human IgG1, kappa, also called Gen 2A construct #14; VL first) heavy: not shown DIVMTQAPLSLPVSLGDQASISCRSSQSIVHSNGNTYLEWYLQKPGQSPKLLIYKVSNRFSGVPDRFSGSGSGTDFTLKISRVEAEDLGIYYCFQGSHVPPTFGGGTKLEIKRTVAAPSVFIFPPSDEQLKSGTASVVCLLNNFYPREAKVQWKVDNALQSGNSQESVTEQDSKDSTYSLSSTLTLSKADYEKHKVYACEVTHQGLSSPVTKSFNRGECGGGGSGGGGSGGGGSGGGGSGGGGSDIQMTQSPSSVSASVGDRVTITCKSSQSLLYSTNQKNYLAWYQQKPGKAPKLLIYWASTRESGVPSRFSGSGSGTDFTLTISSLQPEDFATYYCQQYFIYPRTFGQGTKVEIKGGGGSGGGGSGGGGSEVQLVQSGAEVKKPGSSVKVSCKASGYIFTDYNMDWVRQAPGQGLEWIGDINPDADTTSYNEKFKGRATLTVDKSTSTAYMELSSLRSEDTAVYYCARGGYSGSSYYHPMDYWGQGTLVTVSSGGGGSGGGGSGGGGSGGGGSGGGGSDIVMTQAPLSLPVSLGDQASISCRSSQSIVHSNGNTYLEWYLQKPGQSPKLLIYKVSNRFSGVPDRFSGSGSGTDFTLKISRVEAEDLGIYYCFQGSHVPPTFGGGTKLEIKRTVAAPSVFIFPPSDEQLKSGTASVVCLLNNFYPREAKVQWKVDNALQSGNSQESVTEQDSKDSTYSLSSTLTLSKADYEKHKVYACEVTHQGLSSPVTKSFNRGEC | binds | –
5 | 2A-3 #3 (bispecific antibody, human IgG1, kappa, also called Gen 2A construct #3; VH first) heavy: not shown DIVMTQAPLSLPVSLGDQASISCRSSQSIVHSNGNTYLEWYLQKPGQSPKLLIYKVSNRFSGVPDRFSGSGSGTDFTLKISRVEAEDLGIYYCFQGSHVPPTFGGGTKLEIKRTVAAPSVFIFPPSDEQLKSGTASVVCLLNNFYPREAKVQWKVDNALQSGNSQESVTEQDSKDSTYSLSSTLTLSKADYEKHKVYACEVTHQGLSSPVTKSFNRGECGGGGSGGGGSGGGGSEVQLVQSGAEVKKPGSSVKVSCKASGYIFTDYNMDWVRQAPGQGLEWIGDINPDADTTSYNEKFKGRATLTVDKSTSTAYMELSSLRSEDTAVYYCARGGYSGSSYYHPMDYWGQGTLVTVSSGGGGSGGGGSGGGGSDIQMTQSPSSVSASVGDRVTITCKSSQSLLYSTNQKNYLAWYQQKPGKAPKLLIYWASTRESGVPSRFSGSGSGTDFTLTISSLQPEDFATYYCQQYFIYPRTFGQGTKVEIKGGGGSGGGGSGGGGSGGGGSDIVMTQAPLSLPVSLGDQASISCRSSQSIVHSNGNTYLEWYLQKPGQSPKLLIYKVSNRFSGVPDRFSGSGSGTDFTLKISRVEAEDLGIYYCFQGSHVPPTFGGGTKLEIKRTVAAPSVFIFPPSDEQLKSGTASVVCLLNNFYPREAKVQWKVDNALQSGNSQESVTEQDSKDSTYSLSSTLTLSKADYEKHKVYACEVTHQGLSSPVTKSFNRGEC | – | binds
6 | 2A-3 #5 (bispecific antibody, human IgG1, kappa, also called Gen 2A construct #5; VH first) heavy: not shown DIVMTQAPLSLPVSLGDQASISCRSSQSIVHSNGNTYLEWYLQKPGQSPKLLIYKVSNRFSGVPDRFSGSGSGTDFTLKISRVEAEDLGIYYCFQGSHVPPTFGGGTKLEIKRTVAAPSVFIFPPSDEQLKSGTASVVCLLNNFYPREAKVQWKVDNALQSGNSQESVTEQDSKDSTYSLSSTLTLSKADYEKHKVYACEVTHQGLSSPVTKSFNRGECGGGGSGGGGSEVQLVQSGAEVKKPGSSVKVSCKASGYIFTDYNMDWVRQAPGQGLEWIGDINPDADTTSYNEKFKGRATLTVDKSTSTAYMELSSLRSEDTAVYYCARGGYSGSSYYHPMDYWGQGTLVTVSSGGGGSGGGGSGGGGSDIQMTQSPSSVSASVGDRVTITCKSSQSLLYSTNQKNYLAWYQQKPGKAPKLLIYWASTRESGVPSRFSGSGSGTDFTLTISSLQPEDFATYYCQQYFIYPRTFGQGTKVEIKGGGGSGGGGSGGGGSGGGGSGGGGSDIVMTQAPLSLPVSLGDQASISCRSSQSIVHSNGNTYLEWYLQKPGQSPKLLIYKVSNRFSGVPDRFSGSGSGTDFTLKISRVEAEDLGIYYCFQGSHVPPTFGGGTKLEIKRTVAAPSVFIFPPSDEQLKSGTASVVCLLNNFYPREAKVQWKVDNALQSGNSQESVTEQDSKDSTYSLSSTLTLSKADYEKHKVYACEVTHQGLSSPVTKSFNRGEC | – | binds
7 | 2A-3 #6 (bispecific antibody, human IgG1, kappa, also called Gen 2A construct #6; VH first) heavy: not shown DIVMTQAPLSLPVSLGDQASISCRSSQSIVHSNGNTYLEWYLQKPGQSPKLLIYKVSNRFSGVPDRFSGSGSGTDFTLKISRVEAEDLGIYYCFQGSHVPPTFGGGTKLEIKRTVAAPSVFIFPPSDEQLKSGTASVVCLLNNFYPREAKVQWKVDNALQSGNSQESVTEQDSKDSTYSLSSTLTLSKADYEKHKVYACEVTHQGLSSPVTKSFNRGECGGGGSGGGGSGGGGSEVQLVQSGAEVKKPGSSVKVSCKASGYIFTDYNMDWVRQAPGQGLEWIGDINPDADTTSYNEKFKGRATLTVDKSTSTAYMELSSLRSEDTAVYYCARGGYSGSSYYHPMDYWGQGTLVTVSSGGGGSGGGGSGGGGSDIQMTQSPSSVSASVGDRVTITCKSSQSLLYSTNQKNYLAWYQQKPGKAPKLLIYWASTRESGVPSRFSGSGSGTDFTLTISSLQPEDFATYYCQQYFIYPRTFGQGTKVEIKGGGGSGGGGSGGGGSGGGGSGGGGSDIVMTQAPLSLPVSLGDQASISCRSSQSIVHSNGNTYLEWYLQKPGQSPKLLIYKVSNRFSGVPDRFSGSGSGTDFTLKISRVEAEDLGIYYCFQGSHVPPTFGGGTKLEIKRTVAAPSVFIFPPSDEQLKSGTASVVCLLNNFYPREAKVQWKVDNALQSGNSQESVTEQDSKDSTYSLSSTLTLSKADYEKHKVYACEVTHQGLSSPVTKSFNRGEC | – | binds
